Test results: the nanobody polyreactivity screen of Harvey et al. (2022)

assay: yeast display, Sf9 membrane polyspecificity reagent, FACS + sequencing; frameworks hold sequencing errors
In short: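 A nanobody's polyreactivity label depends on the gate it was sorted from. Yeast display cells were stained with 10% biotinylated, detergent-solubilized Sf9 membrane reagent for 1 hour at 4 °C, enriched on streptavidin microbeads and sorted by FACS. The low and high (top ~1%) gates were set on anti-HA fluorescence for expression and streptavidin fluorescence for reagent binding.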

Sequence | polyreactivity (PSR sort gate)
QVQLVESGGGLVQAGGSHRLSCAASGFIFPYYTMGRYRQAPEKERELVAANRYSAGRTYYADSVKGRFTISRDIAKNTVYLQLNSLKPVDTAVYYCNAVSSGDMDYWGQGTQVTVSS | high polyreactivity
QVQLVESGGGLVQAGGSHRLSCAASGFTFWDYAMGWYRKAPGKEREMVAAITSRGTRTYYADSVKGRFTISRDNAKNTVYLQMNSLKPEDTDVYYCATAIPDPDYIHNYWGQGTQVTVSS | high polyreactivity
QVQLVESGGGLVQAGGSHRLSCAASGITFRRNTMGWYRQAPGKERELVATISWRGGNTFYADSVKGRFTFSRDNAKNTVYLQMNSLKPEDTAVYYCNARGYGTLIVRRERMDYWGQGTQVTVSS | high polyreactivity
QVQLVESGGGLVQAGGSHRLSCAASGITLGRYAMGWYRQAPGKEREFVAAISSWSGGSTTYADSVKGRFTISRDNAKNTVYLQMNSLKPEDTAVYYWNARRYYGRYYLGHSDYDYWGQGTQVTVSS | high polyreactivity
QVQLVESGGGLVQAGGSHRLSCAASGLTFFPYAMGWYRQAPGKERELVAAITTSDGTTYYADSVKGRFTISRDNAKNTVYLQMNSLKPEDTAVYYCAAVYSPRSVWWYDYWGQGTQVTVSS | low polyreactivity
QVQLVESGGGLVQAGGSHRLSCAASGLTFYQYSMGWYRQAPGKERELVAAISKSAGSTYYADSVKGRFTISRDNAKNTVYLQMNSLKPEDTAVYYCAARVLRLRYDYWGQGTQVTVSS | high polyreactivity
QVQLVESGGGLVQAGGSHRLSCAASGNAMGCYRQAPGKERELVAAITYGGTTTYYADSVKGRFTISRDNAKNTVYLQMNSLKPEDTAVYYCAADYVFVATPLRYDYWGQGTQVTVSS | low polyreactivity
QVQLVESGGGLVQAGGSHRLSCAASGNTFPLYAMGWYRQAPGKERELVAAISQRGGSTYYADSVKGRFTISRDNAKNTVYLQMNSLKPEDTAVYYCAATWADEYQYRRYYYWGHGTQVTVSS | high polyreactivity
QVQLVESGGGLVQAGGSHRLSCAASGRIFSVNAMGWYRQAPGKERELVASISWSGGSTYYADSVKGRFTISRDNAKNPVYLQMNSLKPEDTAVYYCNARIDSYGLDFDYWGQGTQVTVSS | low polyreactivity
QVQLVESGGGLVQAGGSHRLSCAASGRTFRRNTMGWYRQAPGKERELVAAISSSGSSTYYADSVKGRFTISRDNAKNSVYLQMNSLKPEDTAVYYCAATGYPRFGYWGQGTQVTVSS | high polyreactivity
QVQLVESGGGLVQAGGSHRLSCAASGRTFRYYTMGWYRQAPGKEREFVAAISSTGGTYYADSVKGRFTISRDNAKNTVYLQMNSLKPEDTAVYYCAKVYFWGALSPDKYDEDYWGQGTQVTVSS | low polyreactivity
QVQLVESGGGLVQAGGSHRLSCAASGRTFSPNAMGWYRQAPGKERELVAAISYRSYRTYYADSVKGRFTISRDKAKNTVYLQMNSLKPEDTAVYYCNADRTRGFQRYDYWGQGTQVTVSS | high polyreactivity
QVQLVESGGGLVQAGGSHRLSCAASGRTFSPYVMGWSREAPGKEREYVARITWSGGSTYYADSVKGRFTISRDNAMYTVYLQMNSLKPEDTAVYYCNARGVFYVYKHDYWGQGTQVTVSS | high polyreactivity
QVQLVESGGGLVQAGGSHRLSCAASGRTFWKYVMGWYRQAPGTERELVAVISRPAGSTYYADSVKGRFTISRHNEKNTVYLQMNSLKPEDTAVYYCAKRPKNKPVLGDYDHWGQGTQVTVSS | low polyreactivity
QVQLVESGGGLVQAGGSHRLSCAASGRTFWYTMGWYRQAPGKERELVAAITWSGGSTYYADSVKGRFTISRDNAMNTVYLQMNSLNPEDTAVYYWNAADYQLWFGYDYWGQGTQVTVSS | low polyreactivity
QVQLVESGGGLVQAGGSHRLSCAASGSIFKDNAMGWYRQAPGKERELVAAITSGASTNYADSVKGRFTMSRDNAKNTVYLQMNSLKPEDTAVYYCAAGTRPTRFVGTKYDYWGQGTQVTVSS | low polyreactivity

Sequence | polyreactivity (PSR sort gate)
QVQLVESGGGLVQAGGSHRLSCAASGSIFRRYAMGWYRQAPGKERELVAAIDSGGNTYADSVKGRFTISRDNAKNTVYLQMISLQPEDTAVYYCSADGGEFSSYGYWGQGTQVTVSS | low polyreactivity
QVQLVESGGGLVQAGGSHRLSCAASGSIFRWYAMGWYRQAPGKERELVAAITSGGGTNYADSVKGRFTISRDNAKNTVYIQMNCLKPEDTAVYYCNAAAWLRWGYRGGFWRYDYWGQGTQVTVSS | high polyreactivity
QVQLVESGGGLVQAGGSHRLSCAASGSIFSYYAMGWYRPAPGKERELVAAISWGDDSTYYAASVKGRFTISRDNEKNTVYLHMNSLKPEDTAVYYCAADRVGWYRTFDYWGQGSQVTVSS | low polyreactivity
QVQLVESGGGLVQAGGSHRLSCAASGSIFYVNAMGWYRQSPGKERELVAAINRGGVSTYYADSVKGRFTISRDNAKNTVYLLMNSLKPEDTAVYYCATDFYLSTYSHYVWLYGYEFYYWGQGTQVTVSS | low polyreactivity
QVQLVESGGGLVQAGGSHRLSCAASGSILEIYAMGWYRQAPGKEREFVASISWDVSSTYYADSVKGRFTISRDNAKNTVYLQMYSLKPEDPAVYYCATSLVWGLYDWYYDLSAAFDYWGQGTQVTVSS | low polyreactivity
QVQLVESGGGLVQAGGSHRLSCAASGSNAMGWYRQAHGKERELVAVITGGGSTHYADSVKGRYTISRDNAKNTVYLLMNSLKAEVTAVYYCAAVYWHSRGKFADIAVDYWGQGTQVTVSS | low polyreactivity
QVQLVESGGGLVQAGGSHRLSCAASGSTFTKNAMGWYRQAPGKERELVATISSGGYTNYADSVKGRFTISRDNAKNSVYLQMNSLKPEDTAVYYCNAVYRYRTRREYGYWGQGTQVTVSS | high polyreactivity
QVQLVESGGGLVQAGGSHRLSCAASGSTFYYYAMGWYRQAPGKERELVAAISKSGGRTYYADSVKGRFTFSRDNAKNTVYLQMNSLKPEDTAVYYCNAVQYLNGYDYWGQGTQVTVSS | high polyreactivity
QVQLVESGGGLVQAGGSHRLSCADSGRTFRTYAMGWYRQAPGKERELVAAITTSGSSTYYADSVKGRFTISRDNAKNTVYLQMNSLKPEDTAVYYCAAARSAIVPGYYSWGQGTQVTVSS | low polyreactivity
QVQLVESGGGLVQAGGSHRLSCASSGRTFYRNAMGWYRQPPGKERELVAAISSGTSTNYADSVKGRFTISRDNAKNTVYLQMNSLKPEDTAVYYCAKERPRGAPAYYSRIYDYWGQGTQVTVSS | high polyreactivity
QVQLVESGGGLVQAGGSHRLSCASSGSTFLPNAMGWYRQPPGKERELVAAITNSGGNTYADSVKGRFTISRDNAKNTVYLEMNSLKPEDTAVYYCNARFSPTGWARGNDYWGQGTQVTVSS | low polyreactivity
QVQLVESGGGLVQAGGSHRLSCSASGQTFVKNAMGWYRQAPGKERELVAAITVSGSRTYYADSVKGRFTISRDNAKNTVYLQMNSLKPEDTAVYYCAAKTADRFAPYYYWGQGTQVTVSS | high polyreactivity
QVQLVESGGGLVQAGGSHRLSSAASARIFAVNVMGWYRQAPGKERELVAAISWSDDIKYYADSVKGRFTISRDNAKNTVYLQMNSLKPEDTAVYYCAADFLPLHADDDDEDYWGQGTQVTVST | high polyreactivity
QVQLVESGGGLVQAGGSHRLSSAASGGIFGKYAMGWYRQAPGKEMDLVAAITWNGGRTYYADSVKGRFTISRDNAKYTLYLQMNSLKPVDTAVHFCAVDDAYPDRYDYWGQGSQVTVSS | high polyreactivity
QVQLVESGGGLVQAGGSHRVSCAASGYIFLHYAMGWYRQATGKEREFVAAITYSGGNTYYADSVKGRFTISRDNAKNTVYLQMISLKPEDTAGYYCAKTRIYSKHWTEPYFYRVDSWGQGTQVTVSS | high polyreactivity
